Results on ten molecules are retold here after PMC8376106, “NAD^+ pool depletion as a signal for the Rex regulon involved in Streptococcus agalactiae virulence” (PLoS Pathogens, 2021).

Broadly, the stoichiometry N is a count of units in the complex or per binding partner.

Read-outs that look alike come from different tables or passages of the source.

For one data set, the target named is T1, GBS Rex (Gbs1167) (Streptococcus agalactiae, UniProt Q8E565).
T1 construct: native Rex from pET101-Strex in E. coli TUNER (DE3), no tag used in purification; apo form eluted from 5' AMP-Sepharose; homodimer
Put plainly: isothermal titration calorimetry, one-site fit. The format is binding. The source says: isothermal titration calorimetry, one-site fit on GBS Rex (Gbs1167)
In general terms: In ITC the heat of successive injections is recorded.

Data set [1] has as its target T2, Rex (Gbs1167) (Streptococcus agalactiae NEM316, UniProt Q8E565 1-212).
T2 sequence: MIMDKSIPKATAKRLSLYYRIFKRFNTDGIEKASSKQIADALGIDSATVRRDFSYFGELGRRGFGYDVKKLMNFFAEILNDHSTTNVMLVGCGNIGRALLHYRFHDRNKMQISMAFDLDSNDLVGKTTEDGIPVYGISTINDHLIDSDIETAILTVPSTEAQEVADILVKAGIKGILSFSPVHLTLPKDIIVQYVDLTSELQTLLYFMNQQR
Put plainly: ITC. The note with it: NAD+; EMSA: 20 mM Tris pH 8.0, 1 mM EDTA, 75 mM KCl, 1 mM DTT, 10 ug/ml BSA, 10% glycerol, 30 C, 20 min, 30 nM DNA (promoter fragments). ITC: 100 mM potassium …. A general note: A gel shift assay detects complexes by their altered migration in electrophoresis.

For data set [2], the target named is T2, Rex (Gbs1167). Description: ITC and EMSA. Particulars: apo Rex in ITC; n = 2.2 +/- 0.2 (one dimer per DNA); EMSA: 20 mM Tris pH 8.0, 1 mM EDTA, 75 mM KCl, 1 mM DTT, 10 ug/ml BSA, 10% glycerol, 30 C, 20 min, 30 nM DNA (promoter fragments). ITC: 100 mM potassium ….
The target of data set [3] is T2, Rex (Gbs1167). Put plainly: EMSA; EMSA: 20 mM Tris pH 8.0, 1 mM EDTA, 75 mM KCl, 1 mM DTT, 10 ug/ml BSA, 10% glycerol, 30 C, 20 min, 30 nM DNA (promoter fragments). ITC: 100 mM potassium phosphate pH 7.5, 25 C. Crystals: 25% PEG 1500, MIB buffer pH 5.0, 20 C. The note with it: protein: recombinant; tags: none (native, pET101-Strex); chain copies: 2; label: 32P; (only forward strand given).

In data set [4] the target is T2, Rex (Gbs1167). Description: EMSA; same as native ldh operator; EMSA: 20 mM Tris pH 8.0, 1 mM EDTA, 75 mM KCl, 1 mM DTT, 10 ug/ml BSA, 10% glycerol, 30 C, 20 min, 30 nM DNA (promoter fragments). ITC: 100 mM potassium phosphate pH 7.5, 25 C. Crystals: 25% PEG 1500, MIB buffer pH 5.0, 20 C. Particulars: protein: recombinant; tags: none (native, pET101-Strex); chain copies: 2; label: 32P; (only forward strand given).

The data set “crystal structure” concerns the molecule itself. Description: crystal structure.
For data set [5], the target named is T2, Rex (Gbs1167). Description: X-ray crystallography (2.4 A); NAD+; Mg2+ ion located; EMSA: 20 mM Tris pH 8.0, 1 mM EDTA, 75 mM KCl, 1 mM DTT, 10 ug/ml BSA, 10% glycerol, 30 C, 20 min, 30 nM DNA (promoter fragments). ITC: 100 mM potassium phosphate pH 7.5, 25 C. Crystals: 25% PEG 1500, MIB buffer pH 5.0, 20 C. Particulars: protein: recombinant; tags: none (native, pET101-Strex); chain copies: 2; blunt; self-complementary, 2 strand copies.

The molecule `NC(=O)C1=CN([C@@H]2O[C@H](COP(=O)(O)OP(=O)(O)OC[C@H]3O[C@@H](n4cnc5c(N)ncnc54)[C@H](O)[C@@H]3O)[C@@H](O)[C@H]2O)C=CC1` [NADH] had a Kd at GBS Rex (Gbs1167) of 0.357 µM.
As to `NC(=O)c1ccc[n+]([C@@H]2O[C@H](COP(=O)(O)OP(=O)(O)OC[C@H]3O[C@@H](n4cnc5c(N)ncnc54)[C@H](O)[C@@H]3O)[C@@H](O)[C@H]2O)c1` [NAD^+], the Kd on GBS Rex (Gbs1167) is 76.9 µM.
Still for that read-out and setting: next, `NC(=O)C1=CN([C@@H]2O[C@H](COP(=O)(O)OP(=O)(O)OC[C@H]3O[C@@H](n4cnc5c(N)ncnc54)[C@H](OP(=O)(O)O)[C@@H]3O)[C@@H](O)[C@H]2O)C=CC1` [NADPH]: 143 µM.
With `Nc1ncnc2c1ncn2[C@@H]1O[C@H](COP(=O)(O)OP(=O)(O)OP(=O)(O)O)[C@@H](O)[C@H]1O` [ATP], at GBS Rex (Gbs1167) (read-out: Ka (M^-1)^a x 10^-6 (converted)), the Kd is 250 µM.
In the data set with Rex (Gbs1167) [1], “ROP-DNA used in ITC (sequence not specified)” returned a binding signal (fold affinity vs apo Rex) of 1.35. The same molecule showed a Kd with Rex (Gbs1167) [2] of 0.03 µM.

B1: ldh operator 28 bp (dsDNA)
DNA 1: TTTGTTTGCAAATTTTTTCACATTTTAT
DNA 2: ATAAAATGTGAAAAAATTTGCAAACAAA
As for B1, the binding result with Rex (Gbs1167) [3] is “binds”.

B2: ldh_m3 (C9T, A10G) (dsDNA)
DNA 1: TTTGTTTGTGAATTTTTTCACATTTTAT
DNA 2: ATAAAATGTGAAAAAATTCACAAACAAA
As for B2, the binding result in the data set with Rex (Gbs1167) [4] is “binds”.

B3: Streptococcus agalactiae (GBS) strain NEM316 redox-sensing transcriptional repressor Rex (Gbs1167) (natural protein, Streptococcus agalactiae strain NEM316)
chain: MIMDKSIPKATAKRLSLYYRIFKRFNTDGIEKASSKQIADALGIDSATVRRDFSYFGELGRRGFGYDVKKLMNFFAEILNDHSTTNVMLVGCGNIGRALLHYRFHDRNKMQISMAFDLDSNDLVGKTTEDGIPVYGISTINDHLIDSDIETAILTVPSTEAQEVADILVKAGIKGILSFSPVHLTLPKDIIVQYVDLTSELQTLLYFMNQQR
notes: also called GBS Rex; native Rex; source: E. coli TUNER (DE3), pET101-Strex, purified (Q-Sepharose, Superdex 75, 5' AMP-Sepharose 4B)
As for B3, the “stoichiometry N” value in “crystal structure” is 2.

B4: ldh_m2 (C19T, C21T) (dsDNA)
DNA 1: TTTGTTTGCAAATTTTTTTATATTTTAT
DNA 2: ATAAAATATAAAAAAATTTGCAAACAAA
B4: the binding result in the data set with Rex (Gbs1167) [3] is recorded as “no binding”.

B5: ROP 22-mer palindrome (dsDNA)
DNA 1: AATTGTGAAATATTTCACAATT
DNA 2: AATTGTGAAATATTTCACAATT
On to B5, for which, in the data set with Rex (Gbs1167) [5], the binding result is on record as “binds”.
